Results reported in the supplement of paper PMC9170038.

Tested on: MS2 coat protein
Test: apparent KD of MS2 coat protein; higher = weaker reporter binding
Details: Eterna round: R107
Summary of the method: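 Binding of SNAP-549-labelled MS2 coat protein was measured on designed RNA switches transcribed on-chip from Illumina sequencing clusters. The protein rose in twofold steps from 0.7 or 1.5 nM to 3 µM, with 0.8–1.5 h per step early on and 10–20 min per step later, in 100 mM Tris-HCl pH 7.5, 80 mM KCl, 4 mM MgCl2, without or with constant ligand. Each design's apparent KD is the median of fits to its normalised cluster binding curves.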

[1] = input ligand: theophylline 20 uM
[2] = input ligand: theophylline 2 mM
[3] = input ligand: tryptophan 2.4 mM

Sequence	apparent KD of MS2 coat protein (input ligand: arginine 13.2 mM) [nM]	apparent KD of MS2 coat protein (input ligand: none) [nM]	apparent KD of MS2 coat protein [1] [nM]	apparent KD of MS2 coat protein [2] [nM]	apparent KD of MS2 coat protein [3] [nM]
CGUGGUUGAGAUGGGCCUCUGAUAAGUCUGCGAGGACCGGUACGGCCGCCACUCGAGGACAUGAGGAUCACCCAUGUACUUCGCG [Vequar]	41.1	30.8	139	50.5	19.2
CUACAUGUAGUUAAACCGGUCAACAAUAAUCGAGGACCGGUACGGCCGCCACUCGAUGUGUUAUACACAUGAGGAUCACCCAUGU [Tryptophan A 15]	23.3	–	27.2	27.8	–
CUACAUUUGUAGAAACCGGUCAACAAUAAUCGAGGACCGGUACGGCCGCCACUCGAUGUAAAAUAAACAUGAGGAUCACCCAUGU [Tryptophan A 12]	13.5	–	20.6	20	–
CUAUAAGUACCGGUCCUCAGAUCCUCAUGACGAGGACCGGUACGGCCGCCACUCGAAACAUGAGGAUCACCCAUGUAAUAAUAAU [Brourdmod06]	15	–	38.5	24.5	–
CUAUAAGUACCGGUCCUCAGAUCCUCAUGACGAGGACCGGUACGGCCGCCACUCGAAACAUGAGGAUCACCCAUGUAAUAAUAUU [Brourdmod10]	19	–	31.5	24.2	–
CUAUGCAGGUCGGCCGCCACUACACACAUGAGGAUCACCCAUGUAGUUACUGGGUGAAGUGGCAGUAGGACCGGGACCUGCACAU [Brourdmod15]	190	480	578	659	229
CUAUGGAUAAGAAGGAGCGUCGAAAAUGGGUAAACAUGAGGAUCACCCAUGUAAAGGGAACGACAGGUAGGUCGCUUAUUUAUAG [AstromonsSSArgB#7]	107	179	190	213	192
CUCAUCCACGCGGCCGCCACUAUAUUGUGGUGCGUAUGUGUCGUAAUACAUGAGGAUCACCCAUGUAGGACCGGGCGUGGAUGAG [#10 Exclusion Tryptophan B]	10.9	–	14.3	11.6	–
CUCAUCCACGCGGCCGCCACUAUAUUGUGGUGUGAAUGUGACGUAUUACAAGAGGAUCACCCUUGUAGGACCGGGCGUGGAUGAG [Tryp B Ex Mod1]	28.5	20.3	28.4	34.2	147
CUCCCGUGAGCGGCCGCCACUGGAGGCCUCGCGCGACAUGAGGAUCACCCAUGUUGGCCCGGCCUCAGGACCGGGUUCGCGUGAG [Same State - Tryptophan B Attempt #6 (HarryS)]	7.47	9.18	17.4	12.7	8.4
CUCCGAGGCUAUACUAUCCGCCUCUGUGAUACCAGAAUACCUAUAUUCCCUUGGCAGCAUCACAUGAGGAUCACCCAUGUGCCAU [SSTheo A #13]	14.5	–	16.8	–	13.9
CUCGAGGCCGGUGAUACCAGACACGAAACUAUACAUGAGGAUCACCCAUGUCAAACAACGGUCCCUUGGCAGCAUGGGUGUAUCC [Enzabemage]	26.9	–	131	–	33.3
CUCGGUUGAUCCUAGCUGCCGAGAGGUGAUACCAGCAUCGAAAGAUGCCCUUGGCAGCACCAACAUGAGGAUCACCCAUGUAAUA [(MT)''-(M)'-(T')-(Theo)-(Ms2)_Design1/22_5]	30.2	–	156	–	30.1
CUGGCAGGAUUCUCAGCUGUCAGGGCUGAUACCAGCCACGAAAGUGGCCCUUGGCAGCAGCAAACAUGAGGAUCACCCAUGUAAU [(T)''-(M)'-(T)'-(Theo)-(Ms2)_Design1]	279	470	364	46.3	208
CUUGAGACAUGAGGAUCACCCAUGUCCGAAGGAGCGUGCGAAAGCACAGGUAGGUCGCGGACGUGAGGAUCUCCCAUGUGAGCGA [#25 Exclusion - Arginine A]	14.3	35.9	28.2	25.7	17.8
CUUGUUUAUGGAAGGAGCGCGAUUACAUAACAUGAGGAUCACCCAUGUAAGAAAUUAUUCAUGCAGGUAGGUCGCCAUGGGUGGG [Same State Arginine B GF7]	111	195	105	258	120
GAACAACAUGAGGAUCACCCAUGUCAGGAUACCAGUCGAAAGUCAGACCCUUGGCAGCCUAUCACUCAGCAAAUAGAUAGUACAA [theeternabot_sameState_MS2_Theo_A_12]	14.7	–	20.4	–	16.2
GAAUAAGAAUCGGCCGCCACUCACAUGAGGAUCACCCAUGUACAUGAGGAACAUGAAAAUCACCCGAGGACCGGGAUAUAUGUUC [Excluion - Tryptophan B #1]	31.1	–	67.4	71.3	–
GACAUGAGGAUCACCCAUGUACCGCGAGAAGGAGCGCGGAUAAACGCAGGUAGGUCGCUCGUGGGCUCACAUUCAAUUGUAAGCU [Digece]	17.5	39.2	49.8	58.3	31.6

Sequence	apparent KD of MS2 coat protein (input ligand: arginine 13.2 mM) [nM]	apparent KD of MS2 coat protein (input ligand: none) [nM]	apparent KD of MS2 coat protein [1] [nM]	apparent KD of MS2 coat protein [2] [nM]	apparent KD of MS2 coat protein [3] [nM]
GACCUUAUCUGAAGGAGCGAGGUAAAUAGGGAUGAGCAUACAUGAGGAUCACCCAUGUGGCCUCAGGUAGGUCGCAGAUGAGAUU [Exclusion Arginine B GF27]	77.5	113	155	149	105
GACCUUAUCUGAAGGAGCGAGGUAAAUAGGGUUGAGCAUACAUGAGGAUCACCCAUGUGGCCUCAGGUAGGUCGCAGAUAAGACA [Exclusion Arginine B GF29]	149	352	308	63.4	137
GACUAUAUGAUAUGUCAGAAAUCCUCGAAACGAGGACCGGUACGGCCGCCACUCGAGUGAUAAACAUGAGGAUCACCCAUGUAAA [Tryp A Ex t2]	21	–	28	27.7	–
GAGCUGAUGUAGAGCGAAUAUACGAGAGAUACCAGUACAGAAAUGUACCCUUGGCAGCUCAACUUUACAUGAGGAUCACCCAUGU [Ex Theophylline A 22]	14.4	–	15.2	–	14.3
GAGCUGAUGUAGAGCUUAUAUAAGAGAGAUACCAGUACAGAAAUGUACCCUUGGCAGCUCAACUUUACAUGAGGAUCACCCAUGU [Ex Theophylline A 20]	12.3	12.6	16	23.6	18.1
GAGGCACGGUCGGCCGCCACUACAGCAGUGGUCCGCCAAGCGAGGUACAUGAGGAUCACCCAUGUUAGGACCGGGACCUGUUUUU [theeternabot_exclusion_MS2_Trp_B_27]	20.2	–	24.6	25.5	–
GAUGAACUAUUUGAUACCAGACUACAUGAGGAUCACCCAUGUGUGUUAAUUUUUCAGUCAGUCCCUUGGCAGCAAAUAGUUUAUC [XTheo B #2]	42.2	–	70.7	–	32.1
GAUGAUAUUGCAGAUACCAGACACAUGAGGAUCACCCAUGUCGCUGAGUUGCUGGAUCGUGUCCCUUGGCAGCUGCGAUAUCAUC [Belgium]	18.3	–	38.5	–	19.7
GAUGAUAUUGCAGAUACCAGACACAUGAGGAUCACCCAUGUCUCUGUGAUGUAGGAUUGUGUCCCUUGGCAGCUGCGAUAUCAUC [Chile]	88	–	258	–	175
GCACCAGGUACGGAUACCAGCUAUAGGCACAGAGGAGGACAUGAGGAUCACCCAUGUGAUGGCCCUUGGCAGCUGUACCUGGUGC [EThB NP+V+V2 #3]	8.89	12.9	23.2	171	10.6
GCACCAGGUACGGAUACCAGCUAUAGGUACAGCGGAGGACAUGAGGAUCACCCAUGUGGUAGCCCUUGGCAGCUGUACCUGGUGC [EThB NP+V+V2 #1 +-Same Structure]	17.7	14.9	23.9	40.4	15.5
GCACCAGGUACGGAUACCAGCUGCCACAGUUACAUGAGGAUCACCCAUGUGAAAACGUGUAGCCCUUGGCAGCUGUACCUGGUGC [SSThB NP+V+V2 #8 Same Structure]	198	459	186	14.6	398
GCAUCCUAGUCGGCCGCCACUGCAACAUGAGGAUCACCCAUGUCUGCAUCUUCAUGAUGCAGUAGCAGGACCGGGACUAGGAUGC [(T1)-(M1)-(M2)-(T)''-(M)'-(T)'-(T2)_Design1_2/18/17]	69.4	–	153	242	–
GCAUCCUAGUCGGCCGCCACUGGUACGAACACCUUCACCCGUGUGCACAUGAGGAUCACCCAUGUCAGGACCGGGACUAGGAUGC [SSTryp B #22]	9.48	–	10.9	8.54	–
GCAUGUGGAGUCUUACUAGAGAGGACAGAUACCAGUAAGAUGUGAUACCCUUGGCAGCUGCGAUUUACAUGAGGAUCACCCAUGU [X-TheoA-ms2@67]	19.2	–	21.4	–	24.7
GCCAGUCAUAGCAGGGCAAAUAUACUCGAAGGAGCGUCAUAGUAGGCAGGUAGGUCGCGAGACAUGAGGAUCACCCAUGUAGAGA [fffmullin]	30.2	47.4	59.8	48.3	32.8
GCCGGACUUUCGGCCGCCACUGAGAGAGUCGUGUGAACAUGAGGAUCACCCAUGUAAUAUAUAUACAGGACCGGGAGGGUUCGGC [4.S]	10.5	12.2	18.7	11.9	12
GCCUAGCAUCGAAGGAGCGCUGGUGAAACUGACUAAUAUACAUGAGGAUCACCCAUGUGCUAGCAGGUAGGUCGCGAUGCUAGGC [SSAB NP+V+V2 #11]	20.4	21.7	27.2	25.5	21.1
GCCUCCAGCCGAAGGAGCGCUAGAAGGUGACAUGAGGAUCACCCAUGUGUGUGAUGUGGCUAGCAGGUAGGUCGCGGAGGAGGUA [Exclusion - Arginine B (Freestyle 21)]	118	99.7	134	111	92
